Data published in US20190359693A1.

Legend:
Experiment in all cases: cell-based or functional assay
[1] = molecular target: hemagglutinin (HA) of influenza A/Indonesia/5/05 (H5N1) (influenza A virus)
[2] = molecular target: hemagglutinin (HA) of influenza A/Perth/16/09 (H3N2) (influenza A virus)
[3] = molecular target: hemagglutinin (HA) of influenza A/Great Cormorant/MP2934/04 (H9N2) (influenza A virus)
[4] = molecular target: hemagglutinin (HA) of influenza A/Common Teal/MPH11/08 (H10N3) (influenza A virus)
[5] = molecular target: hemagglutinin (HA) of influenza A/Northern Shoveler/MPF518/08 (H7N7) (influenza A virus)
[6] = molecular target: hemagglutinin (HA) of influenza A/Panama/2007/99 (H3N2) (influenza A virus)
[7] = molecular target: hemagglutinin (HA) of influenza A/Vietnam/1194/04 (H5N1) (influenza A virus)
[8] = molecular target: hemagglutinin (HA) of influenza A/Victoria/210/09 (H3N2) (influenza A virus)
[9] = molecular target: hemagglutinin (HA) of influenza A/Eurasian Wigeon/HK/MPF333/07 (H5N2) (influenza A virus)
[10] = molecular target: hemagglutinin (HA) of influenza A/AnnArbor/23/57 (H2N2) (influenza A virus)
[11] = molecular target: hemagglutinin (HA) of influenza A/Shanghai/2/13 (H7N9) (influenza A virus)
[12] = molecular target: hemagglutinin (HA) of influenza A/Eurasian Wigeon/MPG1884/09 (H6N1) (influenza A virus)
[13] = molecular target: hemagglutinin (HA) of influenza A/Netherlands/219/2003 (H7N7) (influenza A virus)
[14] = molecular target: hemagglutinin (HA) of influenza A/WSN/33 (H1N1) (influenza A virus) (UniProt P03454)
[15] = molecular target: hemagglutinin (HA) of influenza A/Env/HK/MPU3156/05 (H1N2) (influenza A virus)
[16] = molecular target: hemagglutinin (HA) of influenza A/HK/466419/09 (H9N2) (influenza A virus)
[17] = molecular target: hemagglutinin (HA) of influenza A/WF/HK/MPA892/06 (H4) (influenza A virus)
[18] = molecular target: hemagglutinin (HA) of influenza A/Northern Pintail/MPC2085/07 (H11N9) (influenza A virus)
[19] = molecular target: hemagglutinin (HA) of influenza A/Christchurch/16/10 (H1N1) (influenza A virus)
[20] = molecular target: hemagglutinin (HA) of influenza A/Env/HK/MPU3156/05 (H2N2) (influenza A virus)
[21] = molecular target: hemagglutinin (HA) of influenza A/Jiangxi/346/2013 (H10N8) (influenza A virus)
[22] = molecular target: hemagglutinin (HA) of influenza A/Chick/Germany/N/49 (H10N7) (influenza A virus)
[23] = molecular target: hemagglutinin (HA) of influenza B/Florida/04/06 (Yamagata) (influenza B virus)
[24] = molecular target: hemagglutinin (HA) of influenza A/Hiroshima/52/05 (H3N2) (influenza A virus)
[25] = molecular target: hemagglutinin (HA) of influenza A/California/07/09 (H1N1) (influenza A virus)
[26] = molecular target: hemagglutinin (HA) of influenza A/Eurasian Wigeon/MPF461/07 (H5N2) (influenza A virus)
[27] = molecular target: hemagglutinin (HA) of influenza B/Brisbane/60/08 (Victoria) (influenza B virus)
[28] = molecular target: hemagglutinin (HA) of influenza A/Anhui/1/13 (H7N9) (influenza A virus)
[29] = molecular target: hemagglutinin (HA) of influenza A/Northern Pintail/MPB1368/06 (H4N1) (influenza A virus)
[30] = molecular target: hemagglutinin (HA) of influenza B/Malaysia/2506/04 (Victoria) (influenza B virus)
[31] = molecular target: hemagglutinin (HA) of influenza A/Eurasian Wigeon/MPD411/07 (H6N8) (influenza A virus)
[32] = molecular target: hemagglutinin (HA) of influenza A/Common Teal/MPF139/07 (H7N7) (influenza A virus)
[33] = molecular target: hemagglutinin (HA) of influenza A/NIBRG/60 (A/mallard/Netherlands/12/00) (H7N3) (influenza A virus)
[34] = molecular target: hemagglutinin (HA) of influenza A/Fukui/45/04 (H3N2) (influenza A virus)
[35] = molecular target: hemagglutinin (HA) of influenza A/Johannesburg/33/94 (H3N2) (influenza A virus)
[36] = molecular target: hemagglutinin (HA) of influenza A/Brisbane/59/07 (H1N1) (influenza A virus)
[37] = molecular target: hemagglutinin (HA) of influenza A/PR8 H7N7-NY (H7N7) (influenza A virus)
[38] = molecular target: hemagglutinin (HA) of influenza A/Aichi/2/68 (H3N2) (influenza A virus) (UniProt P03437)
[39] = molecular target: hemagglutinin (HA) of influenza A/HK/1174/99 (H3N2) (influenza A virus)
[40] = molecular target: hemagglutinin (HA) of influenza A/Eurasian Wigeon/MPH571/08 (H8N4) (influenza A virus)
[41] = molecular target: hemagglutinin (HA) of influenza A/Brisbane/10/07 (H3N2) (influenza A virus)
[42] = molecular target: hemagglutinin (HA) of influenza A/Ck/HK/SSP176/09 (H9N2) (influenza A virus)
[43] = molecular target: hemagglutinin (HA) of influenza A/Taiwan/2/2013 (H6N1) (influenza A virus)

MD3606 (Fc fusion)
Average neutralization titers [1]: 11.5 nM | Average neutralization titers [2]: 5.7 nM | Average neutralization titers [3]: 9.7 nM | Average neutralization titers [4]: 11.3 nM | Average neutralization titers [5]: 18.4 nM | Average neutralization titers [6]: 40.5 nM | Average neutralization titers [7]: 5.7 nM | Average neutralization titers [8]: 6.5 nM | Average neutralization titers [9]: 7 nM | Average neutralization titers [10]: 13.2 nM | Average neutralization titers [11]: 22.8 nM | Average neutralization titers [12]: 11.6 nM | Average neutralization titers [13]: 20.4 nM | Average neutralization titers [14]: 2 nM | Average neutralization titers [15]: 2.6 nM | Average neutralization titers [16]: 5.3 nM | Average neutralization titers [17]: 3 nM | Average neutralization titers [18]: 7.2 nM | Average neutralization titers [19]: 1 nM | Average neutralization titers [20]: 9.3 nM | Average neutralization titers [21]: 18.3 nM | Average neutralization titers [22]: 10.2 nM | ADCC induction (EC50 grade, FcγRIIIa reporter bioassay) [23]: < 0.1 µg/mL | Average neutralization titers [23]: 1 nM | Average neutralization titers [24]: 6.5 nM | Average neutralization titers [25]: 1.8 nM | Average neutralization titers [26]: 9.2 nM | ADCC induction (EC50 grade, FcγRIIIa reporter bioassay) [27]: < 0.1 µg/mL | Average neutralization titers [27]: 1 nM | Average neutralization titers [28]: 38.2 nM | Average neutralization titers [29]: 2.6 nM | Average neutralization titers [30]: 2.6 nM | Average neutralization titers [31]: 9.7 nM | Average neutralization titers [32]: 26.3 nM | Average neutralization titers [33]: 12.9 nM | Average neutralization titers [34]: 40.5 nM | Average neutralization titers [35]: 8.1 nM | Average neutralization titers [36]: 5.3 nM | Average neutralization titers [37]: 8.1 nM | Average neutralization titers [38]: 32.2 nM | Average neutralization titers [39]: 23 nM | Average neutralization titers [40]: 3.7 nM | Average neutralization titers [41]: 4.1 nM | Average neutralization titers [42]: 9 nM | Average neutralization titers [43]: 14.5 nM
